Measured values published in paper PMC11334519.

What was measured:
[1] = molecular target: 6×Myc-tagged ORF24 BD [1–400 aa]; assay: pull-down
3×FLAG-ORF66 = assay: pull-down
[2] = 293T cells cotransfected, lysates pulled down with S-protein-agarose capturing 2×S-ORF34, parent: 1.00

Substance	ratio to parent [1, 2]	ratio to parent ([1]; parent: 1.000)	ratio to parent (3×FLAG-ORF66; [2])	ratio to parent (3×FLAG-ORF66; parent: 1.000)
2×S-tagged KSHV ORF34 WT S168A	0.94	0.94	0.97	0.969
2×S-tagged KSHV ORF34 WT C256A	0.11	0.109	–	–
2×S-tagged KSHV ORF34 WT F47A	0.86	0.859	1.09	1.09
2×S-tagged KSHV ORF34 WT Q264A; N265A	0.67	0.665	–	–
2×S-tagged KSHV ORF34 WT C175A	0.34	0.345	0.04	0.039
2×S-tagged KSHV ORF34 WT D154A	0.51	0.512	0.28	0.282
2×S-tagged KSHV ORF34 WT G165A	0.68	0.68	0.02	0.022
2×S-tagged KSHV ORF34 WT R234A	0.74	0.74	0.77	0.775
2×S-tagged KSHV ORF34 WT C170A	0.32	0.325	0.05	0.057
2×S-tagged KSHV ORF34 WT E41A; T42A	0.88	0.877	1.03	1.03
2×S-tagged KSHV ORF34 WT Y215A	1.02	1.02	0.16	0.167
2×S-tagged KSHV ORF34 WT L188A; L189A	0.5	0.503	–	–
2×S-tagged KSHV ORF34 WT Y310A	0.96	0.956	0.17	0.173
2×S-tagged KSHV ORF34 WT V50A	0.86	0.861	1.11	1.11
2×S-tagged KSHV ORF34 WT G182A	1.28	1.29	0.36	0.359
2×S-tagged KSHV ORF34 WT W160A	0.47	0.473	0.29	0.289
2×S-tagged KSHV ORF34 WT C259A	0.03	0.027	–	–
2×S-tagged KSHV ORF34 WT Y194A	0.64	0.645	0.003	0.003
